For assay [1], the target named is T1, meditope-enabled M5A (M5A 8M).
T1 construct: Eight point mutations in the light chain; wild-type heavy chain; expressed in NS0 cells; also called meditope-enabled anti-CEA antibody
Description: SPR. A general note: Surface plasmon resonance follows binding to a sensor surface in real time, without labels.

For assay [2], the target named is T2, wild-type trastuzumab.
T2 construct: also called WT T
Description: FACS, SKBR3 cells pre-treated with AF488 wild-type trastuzumab, then 0.1 or 1 µM AF647-MPL (L3), washed extensively. On the technique in general: In flow cytometry, cells or beads pass a laser one at a time.

A further assay has as its target T3, HER2 on SKBR3 cells (UniProt P04626 23-1255, limits assumed).
T3 construct: whole, on cells; also called HER2-expressing cells (SKBR3)
Kind of assay: FACS, SKBR3 cells without antibody.

The target of assay [3] is T4, wild-type M5A (anti-CEA antibody).
T4 construct: Humanized antibody with the same backbone as trastuzumab
T4 sequence (light, as listed by the source, chain 1 of 2): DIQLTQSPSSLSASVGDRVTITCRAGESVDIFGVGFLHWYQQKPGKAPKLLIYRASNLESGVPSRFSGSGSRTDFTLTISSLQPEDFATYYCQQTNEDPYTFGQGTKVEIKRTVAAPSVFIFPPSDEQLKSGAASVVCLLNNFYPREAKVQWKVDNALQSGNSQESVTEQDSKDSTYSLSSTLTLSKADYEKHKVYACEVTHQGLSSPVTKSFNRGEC
T4 sequence (heavy, as listed by the source, chain 2 of 2): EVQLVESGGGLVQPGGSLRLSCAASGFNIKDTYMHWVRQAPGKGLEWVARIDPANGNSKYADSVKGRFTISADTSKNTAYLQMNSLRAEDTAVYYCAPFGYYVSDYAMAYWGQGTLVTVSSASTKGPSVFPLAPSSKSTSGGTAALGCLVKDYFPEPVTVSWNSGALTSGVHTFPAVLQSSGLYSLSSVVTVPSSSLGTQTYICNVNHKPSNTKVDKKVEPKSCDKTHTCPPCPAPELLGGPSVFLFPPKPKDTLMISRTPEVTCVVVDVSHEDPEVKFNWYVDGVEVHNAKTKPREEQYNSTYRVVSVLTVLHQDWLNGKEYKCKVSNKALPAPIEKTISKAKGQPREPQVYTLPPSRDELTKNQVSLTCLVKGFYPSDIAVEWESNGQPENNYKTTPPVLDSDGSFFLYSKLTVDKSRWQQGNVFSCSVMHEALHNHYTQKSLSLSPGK
Description: FACS, LS174T cells with 500 nM AF488 wild-type M5A and 9 µM AF647-MPL, 30 min [upper right histogram].
Description: (§1) Cells were washed twice with 0.1% BSA and FACS analysis was performed.

Assay [4] deals with T1, meditope-enabled M5A (M5A 8M). Description: FACS, LS174T cells with 500 nM AF488 M5A 8M and 9 µM AF647-MPL, 30 min [upper right histogram].
Description: as §1
For assay [5], the target named is T2, wild-type trastuzumab. Kind of assay: FACS, SKBR3 cells pre-bound with WT T, washed, then 0.1 or 1 µM Alexa 647-MPL-5K.
Assay [6] concerns the target T1, meditope-enabled M5A (M5A 8M). Description: SPR, kinetic fit, meditope at 10, 2, 0.4 and 0.08 uM over M5A 8M IgG immobilized at 5000 RU.
For assay [7], the target named is T5, meditope-enabled trastuzumab.
T5 construct: Full IgG expressed in mammalian cells; also called TM; trastuzumab memAb
T5 sequence (heavy, as listed by the source limits assumed, chain 1 of 2): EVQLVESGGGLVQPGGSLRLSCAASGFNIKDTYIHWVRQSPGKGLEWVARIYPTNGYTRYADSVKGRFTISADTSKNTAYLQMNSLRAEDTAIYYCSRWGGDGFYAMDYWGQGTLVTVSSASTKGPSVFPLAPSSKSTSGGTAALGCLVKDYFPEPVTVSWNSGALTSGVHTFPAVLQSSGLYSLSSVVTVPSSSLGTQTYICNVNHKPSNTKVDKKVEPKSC
T5 sequence (light, as listed by the source limits assumed, chain 2 of 2): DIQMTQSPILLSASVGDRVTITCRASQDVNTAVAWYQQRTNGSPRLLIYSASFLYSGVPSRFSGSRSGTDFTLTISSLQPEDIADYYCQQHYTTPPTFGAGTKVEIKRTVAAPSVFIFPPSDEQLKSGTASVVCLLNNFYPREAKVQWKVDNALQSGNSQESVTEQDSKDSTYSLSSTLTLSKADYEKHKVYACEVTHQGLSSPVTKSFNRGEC
Description: SPR; earlier SPR study of paragraph 680, approximate binding constant stated in text.

Bridges are numbered along the chain shown (N, C = ends). Where no end group is shown, it is not given here. [ ]: non-standard residue; d: D form. Dip = N[C@H](C(=O)O)C(c1ccccc1)c1ccccc1

T1 sequence (light, as listed by the source, chain 1 of 2): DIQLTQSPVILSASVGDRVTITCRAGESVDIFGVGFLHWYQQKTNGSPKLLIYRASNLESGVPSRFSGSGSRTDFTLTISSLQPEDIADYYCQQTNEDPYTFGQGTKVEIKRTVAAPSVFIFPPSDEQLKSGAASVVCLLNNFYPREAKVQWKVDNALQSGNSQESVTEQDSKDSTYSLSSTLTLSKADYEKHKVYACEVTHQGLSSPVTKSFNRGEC
T1 sequence (heavy, as listed by the source, chain 2 of 2): as the sequence (heavy, as listed by the source, chain 2 of 2) above
T2 sequence (heavy, as listed by the source limits assumed, chain 1 of 2, other chains not shown): as the sequence (heavy, as listed by the source limits assumed, chain 1 of 2) above, with S40A, I93V counted along it

As for CQYNLSSRALKC (disulfide 1-12, also called meditope 2) [cQYN meditope (cyclic CQYNLSSRALKC)], in assay [1], the binding result is on record as “binds”.

B1: meditope-Protein L fusion protein (MPL), linker GGGGS (designed binder)
chain: SCQFDLSTRRLKCGGGGSEVTIKVNLIFADGKIQTAEFKGTFEEATAEAYRYAALLAKVNGEYTADLEDGGNHMNIKFAG
modifications: the two cysteines cyclized (disulfide)
notes: Labeled with AF647 in cell assays; also called MPL (L3); MPL (WT)
Consider B1, for which the binding result is “no binding (tested: 1 µM)” with wild-type trastuzumab [2], “no binding (tested: 0.1 µM or 1 µM MPL)” with HER2 on SKBR3 cells, “binds” in assay [3] and “binds” in assay [4].

B2: meditope-Protein L fusion in which all but one lysine were mutated to arginine or asparagine (MPL-5K) (designed binder)
chain: SCQFDLSTRRLRCGGGGSEVTIRVNLIFADGNIQTAEFRGTFEEATAEAYRYAALLARVNGEYTADLEDGGNHMNIKFAG
As for B2, the results for the binding result with HER2 on SKBR3 cells and with wild-type trastuzumab [5] were “no binding” and “no binding (tested: 1 µM)”, respectively.

B3: meditope 18 (C-QFDXSTRRLK-C) (peptide)
peptide: CQFD[Dip]STRRLKC
modifications: disulfide 1-12
notes: also called CQFDA(diphenyl)STRRLKC; 5-diphenyl meditope
In assay [6], B3 showed a Kd of 438 nM, a koff of 0.015 s⁻¹ and a kon of 34300 M⁻¹ s⁻¹.

B4: Protein L (single Fab binding domain) (other)
chain: EVTIKVNLIFADGKIQTAEFKGTFEEATAEAYRYAALLAKVNGEYTADLEDGGNHMNIKFAG
notes: also called Protein L (only); protein L alone
Turning to B4, the Kd in assay [7] is ~500 nM.

B5: meditope 31 (AcC-QFDLSTRRLR-CGGGSK) (peptide)
peptide: Ac-CQFDLSTRRLRCGGGSK
modifications: disulfide 1-12; also: fluorescein attached in labeled form for polarization assay
For B5, in assay [1], the binding result is “binds”.

What is called Kd is a measure of binding affinity in units of concentration. Lower therefore signals a tighter complex. In general, koff refers to the rate constant with which the complex falls apart. A lower koff goes with a long-lived complex. The term kon denotes a measure of how fast the partners come together. Low readings indicate slow association, high ones fast association.

Source of the values: patent US20140113348A1 (CITY OF HOPE, published 2014).
